From paper PMC10597343

Target: T1, AcrR (Escherichia coli) (UniProt P0ACS9)
T1 sequence: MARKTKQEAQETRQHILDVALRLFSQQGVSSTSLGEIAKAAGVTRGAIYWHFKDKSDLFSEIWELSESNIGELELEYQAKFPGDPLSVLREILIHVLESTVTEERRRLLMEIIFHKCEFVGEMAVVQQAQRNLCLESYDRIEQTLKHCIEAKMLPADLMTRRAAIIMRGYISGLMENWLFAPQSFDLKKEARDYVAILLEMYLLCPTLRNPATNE
Test: EMSA
Details: EMSA with LightShift Chemiluminescent EMSA Kit, AcrR 0, 0.4 and 1 uM, as in ref 35; buffer, salt, pH and temperature not stated

| Sequence | binding |
| --- | --- |
| CTTGCCATGCGATTTCCTTTTATCTTTCGACACGTAAAACGAATACCGGGGTTATCGGTCTGAATTGCGCAAAGTTTACGTTTAATTGTTTTTTTTAATAGCGGGAATAAGGGGCAGAGAAAAGAGTATTTCGGCGACTAACAAAAAATGGCTGTTTTTGAAAAAAATTCTAAAGGTTGTTTTACGACAGACGATAACAGGGTTGACGGCGATTGAGCCGACGGGTGGAAACCCAATACGTAATCAACGA (double strand) [fliDSTp] | no binding |
| TGCAAGTAGTAAATATGACAAGTTGATGTCATAAATGTGTTTCAGCAACTCGGAGGTATGCATTATTCCCACCCAGAATAACCAACTTTATTTTTATGCGGTTTCACCGCACCCCGTGATGTCGCCGGGAAGCCCCGGTAAAAAATAATTAGCATTAGAATAGTTGCGAT (double strand) [flhDCpS2] | no binding |
